# According to publication PMC6085627:
# What was measured:
# Recombinant GST-A-box = test: SPR; Biacore T200; GST-A-box (750 RU) or GST-B-box (1000 RU) amine-coupled on CM5; MD-2 injected (17-500 nM) at 30 μL/min for 60 s, 25 °C, dissociation 1 min; HBS-EP pH 7.4; steady-state affinity model; apparent KD
# Recombinant GST-B-box = test: as above
# [1] = target: human TLR4 (human), O00206; test: SPR; Biacore T200; rhTLR4 amine-coupled on CM5 (~800 RU); HMGB1 isoforms injected at 30 μL/min for 60 s, 25 °C, dissociation 1-2 min; HBS-EP pH 7.4; 1:1 binding supposed; apparent KD; conditions: remark: other sources report otherwise
# Chain of human TLR4 (human), O00206 (O00206 24-631): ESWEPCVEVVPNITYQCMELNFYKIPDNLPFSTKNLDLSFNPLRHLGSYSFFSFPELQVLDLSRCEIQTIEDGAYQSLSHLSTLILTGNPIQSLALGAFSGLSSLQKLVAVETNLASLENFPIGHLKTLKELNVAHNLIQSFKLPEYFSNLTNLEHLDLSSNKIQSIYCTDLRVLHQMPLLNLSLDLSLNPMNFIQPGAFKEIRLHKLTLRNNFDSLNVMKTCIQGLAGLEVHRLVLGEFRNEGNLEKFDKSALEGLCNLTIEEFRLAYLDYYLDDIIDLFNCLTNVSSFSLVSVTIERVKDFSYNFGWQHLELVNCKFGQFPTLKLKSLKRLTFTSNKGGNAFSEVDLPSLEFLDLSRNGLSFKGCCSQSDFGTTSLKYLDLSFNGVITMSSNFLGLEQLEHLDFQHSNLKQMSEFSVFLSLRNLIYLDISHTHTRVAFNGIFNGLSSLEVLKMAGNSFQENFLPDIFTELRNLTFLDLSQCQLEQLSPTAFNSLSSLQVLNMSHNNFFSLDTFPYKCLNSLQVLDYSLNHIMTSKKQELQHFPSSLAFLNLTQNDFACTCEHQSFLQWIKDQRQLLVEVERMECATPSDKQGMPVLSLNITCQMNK
# [2] = target: Human TLR4/MD-2 complex (human), O00206; test: SPR; Biacore T200; TLR4/MD-2 amine-coupled on CM5 (1100 RU); GST-A-box, GST-B-box (150-5000 nM), A-box or GST injected at 30 μL/min for 60 s, 25 °C, dissociation 1 min; HBS-EP pH 7.4; GST-A-box: association and dissociation fitted separately to a 1:1 model; GST-B-box: steady-state affinity model; apparent KD
# [3] = target: human TLR4 (human), O00206; test: SPR; Biacore T200; TLR4 amine-coupled on CM5 (800 RU); GST-A-box (310-10,000 nM), GST-B-box (1 and 5 μM), A-box or GST injected at 30 μL/min for 60 s, 25 °C, dissociation 2 min; HBS-EP pH 7.4; 1:1 binding supposed; apparent KD
# [4] = target: Human TLR4 (rhTLR4) (human), O00206; test: SPR; TLR4/MD-2 complex or TLR4 coated on a CM5 chip; A-box protein injected as analyte (0-5 µM on TLR4/MD-2, 0-10 µM on TLR4); Biacore T200, HBS-EP buffer pH 7.4
# Chain of Human TLR4 (rhTLR4) (human), O00206 (O00206 24-631): as above
# [5] = target: Human TLR4/MD-2 complex (human), O00206; test: as above
# Target sequence in this assay (O00206 24-631, chain 1 of 2, one chain of several): as the sequence (O00206 24-631) above
binder,measurement,setting,value
"human MD-2, Q9Y6Y9 19-160 (natural protein) QKQYWVCNSSDASISYTYCDKMQYPISINVNPCIELKRSKGLLHIFYIPRRDLKQLYFNLYITVNTMNLPKRKEVICRGSDDDYSFCRALKGETVNTTISFSFKGIKFSKGKYKCVVEAISGSPEEMLFCLEFVILHQPNSN",Kd,Recombinant GST-A-box,3250 nM
human MD-2 (natural protein) QKQYWVCNSSDASISYTYCDKMQYPISINVNPCIELKRSKGLLHIFYIPRRDLKQLYFNLYITVNTMNLPKRKEVICRGSDDDYSFCRALKGETVNTTISFSFKGIKFSKGKYKCVVEAISGSPEEMLFCLEFVILHQPNSN,Kd,Recombinant GST-B-box,1410 nM
"disulfide HMGB1 (High Mobility Group Box 1), P63159 1-215 (natural protein, here or on the partner: disulfide bond between C23 and C45) MGKGDPKKPRGKMSSYAFFVQTCREEHKKKHPDASVNFSEFSKKCSERWKTMSAKEKGKFEDMAKADKARYEREMKTYIPPKGETKKKFKDPNAPKRPPSAFFLFCSEYRPKIKGEHPGLSIGDVAKKLGEMWNNTAADDKQPYEKKAAKLKEKYEKDIAAYRAKGKPDAAKKGVVKAEKSKKKKEEEDDEEDEEDEEEEEEEEDEDEEEDDDDE",Kd,[1],640 nM
same,fold slower dissociation rate than reduced HMGB1,[1],2 fold
same,koff,[1],0.128 s⁻¹
"DTT reduced HMGB1, P63159 1-215 (natural protein, here or on the partner: cysteines reduced with DTT (no C23-C45 disulfide)) MGKGDPKKPRGKMSSYAFFVQTCREEHKKKHPDASVNFSEFSKKCSERWKTMSAKEKGKFEDMAKADKARYEREMKTYIPPKGETKKKFKDPNAPKRPPSAFFLFCSEYRPKIKGEHPGLSIGDVAKKLGEMWNNTAADDKQPYEKKAAKLKEKYEKDIAAYRAKGKPDAAKKGVVKAEKSKKKKEEEDDEEDEEDEEEEEEEEDEDEEEDDDDE",Kd,[1],650 nM
"Recombinant GST-A-box (domain or fragment, modifications not checked) PRGKMSSYAFFVQTCREEHKKKHPDASVNFSEFSKKCSERWKTMSAKEKGKFEDMAKADKARYEREMKTYI",Kd,[2],1210 nM
same,koff,[2],0.037 s⁻¹
same,kon,[2],30800 M⁻¹ s⁻¹
same,Kd,[3],590 nM
same,koff,[3],0.013 s⁻¹
same,kon,[3],22000 M⁻¹ s⁻¹
"Recombinant A-box without GST tag (HMGB1 A-box domain) (domain or fragment, modifications not checked) PRGKMSSYAFFVQTCREEHKKKHPDASVNFSEFSKKCSERWKTMSAKEKGKFEDMAKADKARYEREMKTYI",Kd,[4],1030 nM
same,Kd,[5],1550 nM
